FireProtDB (doi:10.1021/bi972395d)

Conditions: Homo sapiens; pH 7.8; Thermal; DSC; potassium phosphate 2 mM; transition: 2; reversible: Yes; whole UniProt chain shown

B1: Superoxide dismutase [Mn], mitochondrial wild type, P04179 (protein)
chain: MLSRAVCGTSRQLAPVLGYLGSRQKHSLPDLPYDYGALEPHINAQIMQLHHSKHHAAYVNNLNVTEEKYQEALAKGDVTAQIALQPALKFNGGGHINHSIFWTNLSPNGGGEPKGELLEAIKRDFGSFDKFKEKLTAASVGVQGSGWGWLGFNKERGHLQIAACPNQDPLQGTTGLIPLLGIDVWEHAYYLQYKNVRPDYLKAIWNVINWENVTERYMACKK
  Tm: 88.9 °C
  unfolding enthalpy (calorimetric): 90.6 kcal/mol
